# Laboratory results taken from the Immune Epitope Database (IEDB).
# Experiments:
# HLA-A*24:02 = test: IEDB peptide-MHC binding, purified MHC/competitive/fluorescence; ≥ and ≤ were set here for values at or beyond the usual limits of such assays
# HLA-B*15:01 [1] = test: as above
# HLA-A*02:03 = test: IEDB peptide-MHC binding, purified MHC/competitive/radioactivity; filed as Kd, often an IC50 or EC50 that approximates it; ≥ and ≤ were set here for values at or beyond the usual limits of such assays
# HLA-A*02:17 = test: as above
# HLA-B*08:01 = test: as above
# HLA-B*15:01 [2] = test: as above; settings: source organism: Dengue virus 3 China/80-2/1980
# HLA-A*02:01 [3] = test: as above
# HLA-A*30:01 = test: as above; settings: source organism: Dengue virus 4 Philippines/H241/1956
# HLA-A*11:01 [4] = test: IEDB peptide-MHC binding, purified MHC/direct/fluorescence; filed as Kd, often an IC50 or EC50 that approximates it; ≥ and ≤ were set here for values at or beyond the usual limits of such assays
# HLA-A*31:01 = test: IEDB peptide-MHC binding, purified MHC/competitive/fluorescence; filed as Kd, often an IC50 or EC50 that approximates it; ≥ and ≤ were set here for values at or beyond the usual limits of such assays
# HLA-A*02:06 = test: IEDB peptide-MHC binding, purified MHC/competitive/radioactivity; filed as Kd, often an IC50 or EC50 that approximates it; ≥ and ≤ were set here for values at or beyond the usual limits of such assays; settings: source organism: Dengue virus 4 Philippines/H241/1956
# HLA-A*02:12 = test: IEDB peptide-MHC binding, purified MHC/direct/fluorescence; filed as Kd, often an IC50 or EC50 that approximates it; ≥ and ≤ were set here for values at or beyond the usual limits of such assays; settings: source organism: Orthohantavirus negraense
# HLA-A*02:19 = test: as above; settings: source organism: Orthohantavirus negraense
# HLA-A*03:01 = test: IEDB peptide-MHC binding, purified MHC/competitive/fluorescence; filed as Kd, often an IC50 or EC50 that approximates it; ≥ and ≤ were set here for values at or beyond the usual limits of such assays; settings: source organism: Neembucu hantavirus
# HLA-A*26:01 = test: as above; settings: source organism: Neembucu hantavirus
# HLA-A*69:01 = test: as above; settings: source organism: Neembucu hantavirus
# HLA-B*15:01 [5] = test: as above; settings: source organism: Neembucu hantavirus
# HLA-B*15:17 = test: as above; settings: source organism: Neembucu hantavirus
# HLA-B*18:01 = test: as above; settings: source organism: Neembucu hantavirus
# HLA-B*27:03 = test: as above; settings: source organism: Neembucu hantavirus
# HLA-B*39:01 = test: as above; settings: source organism: Neembucu hantavirus
# HLA-B*46:01 = test: as above; settings: source organism: Neembucu hantavirus
# HLA-B*51:01 = test: as above; settings: source organism: Neembucu hantavirus
# HLA-B*57:01 = test: as above; settings: source organism: Neembucu hantavirus
# HLA-A*68:02 = test: IEDB peptide-MHC binding, purified MHC/competitive/radioactivity; filed as Kd, often an IC50 or EC50 that approximates it; ≥ and ≤ were set here for values at or beyond the usual limits of such assays; settings: source organism: Dengue virus 1 Brazil/97-11/1997
# HLA-A*02:01 [6] = test: IEDB peptide-MHC binding, purified MHC/competitive/fluorescence; ≥ and ≤ were set here for values at or beyond the usual limits of such assays; settings: source organism: Zaire ebolavirus
# HLA-A*11:01 [7] = test: as above; settings: source organism: Zaire ebolavirus
# [8] = source organism: Vaccinia virus Copenhagen
# [9] = source organism: Dengue virus 3 China/80-2/1980
# [10] = source organism: Sudan ebolavirus
# [11] = source organism: Dengue virus 4 Philippines/H241/1956
# [12] = source organism: Dengue virus 1 Singapore/S275/1990
# [13] = source organism: Vaccinia virus
# [14] = source organism: West Nile virus
# [15] = source organism: Zaire ebolavirus
# [16] = source organism: Dengue virus 2 Jamaica/1409/1983
sequence,measurement,setting,value
QMTSTFIML,IC50,HLA-A*24:02; [8],224 nM
same,IC50,HLA-B*15:01 [1]; [8],30200 nM
LMMMLPATL,Kd,HLA-A*02:03; [9],6.62 nM
same,Kd,HLA-A*02:17; [9],227 nM
same,Kd,HLA-B*08:01; [9],18.7 nM
same,Kd,HLA-B*15:01 [2],87.1 nM
ILAKPKETF,IC50,HLA-A*24:02; [10],500 nM
same,IC50,HLA-B*15:01 [1]; [10],≥ 102000 nM
SLCLMMMLPA,Kd,HLA-A*02:01 [3]; [9],65.7 nM
same,Kd,HLA-A*02:17; [9],11700 nM
ALPVYLMTL,Kd,HLA-A*02:01 [3]; [11],10.9 nM
same,Kd,HLA-A*02:17; [11],1.77 nM
KMKKKTWLV,Kd,HLA-A*02:01 [3]; [11],66.6 nM
same,Kd,HLA-A*02:03; [11],31 nM
same,Kd,HLA-A*02:17; [11],65 nM
same,Kd,HLA-A*30:01,17.2 nM
same,Kd,HLA-B*08:01; [11],93.5 nM
GLLCVMASSV,Kd,HLA-A*02:01 [3]; [12],11.4 nM
same,Kd,HLA-A*02:03; [12],26 nM
same,Kd,HLA-A*02:17; [12],151 nM
KTFVELMRR,Kd,HLA-A*11:01 [4]; [12],16.2 nM
same,Kd,HLA-A*31:01; source organism: dengue virus type 1,≤ 1 nM
GTSGTEKEF,IC50,HLA-A*24:02; [13],≥ 205000 nM
same,IC50,HLA-B*15:01 [1]; [13],≥ 401000 nM
VILAGPIPV,Kd,HLA-A*02:01 [3]; [11],6.74 nM
same,Kd,HLA-A*02:06,132 nM
same,Kd,HLA-A*02:17; [11],995 nM
KSNIEETKF,IC50,HLA-B*15:01 [1]; [13],≥ 481000 nM
ILYMLSWGK,Kd,HLA-A*02:12,≥ 20000 nM
same,Kd,HLA-A*02:19,≥ 20000 nM
same,Kd,HLA-A*03:01,155 nM
same,Kd,HLA-A*26:01,≥ 20000 nM
same,Kd,HLA-A*69:01,≥ 20000 nM
same,Kd,HLA-B*15:01 [5],≥ 20000 nM
same,Kd,HLA-B*15:17,≥ 20000 nM
same,Kd,HLA-B*18:01,≥ 20000 nM
same,Kd,HLA-B*27:03,≥ 20000 nM
same,Kd,HLA-B*39:01,≥ 20000 nM
same,Kd,HLA-B*46:01,≥ 20000 nM
same,Kd,HLA-B*51:01,≥ 20000 nM
same,Kd,HLA-B*57:01,≥ 20000 nM
TLTAAVLMLV,Kd,HLA-A*02:01 [3]; [12],3.97 nM
same,Kd,HLA-A*02:03; source organism: Dengue virus 1 Brazil/97-11/1997,3.45 nM
same,Kd,HLA-A*02:17; [12],1060 nM
same,Kd,HLA-A*68:02,1.58 nM
ILAKAIFKL,Kd,HLA-A*02:01 [3]; [11],14 nM
same,Kd,HLA-A*02:17; [11],37.9 nM
GLYKSAPRR,Kd,HLA-A*11:01 [4]; [14],≥ 20000 nM
same,Kd,HLA-A*31:01; [14],197 nM
LSFASLFLP,IC50,HLA-A*02:01 [6],2670 nM
same,IC50,HLA-A*11:01 [7],≥ 179000 nM
same,IC50,HLA-A*24:02; [15],11100 nM
same,IC50,HLA-B*15:01 [1]; [15],≥ 97800 nM
VLMMRTTWA,Kd,HLA-A*02:01 [3]; [16],34.6 nM
same,Kd,HLA-A*02:03; [16],13.5 nM
same,Kd,HLA-A*02:17; [16],15200 nM
same,Kd,HLA-B*08:01; [16],12.8 nM
MLLILCTSQI,Kd,HLA-A*02:01 [3]; [12],75.8 nM
same,Kd,HLA-A*02:17; [12],182 nM
